{"source": "the nanobody polyreactivity screen of Harvey et al. (2022)"}
{"experiment": "yeast display, Sf9 membrane polyspecificity reagent, FACS + sequencing; frameworks hold sequencing errors", "how_it_was_run": "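A synthetic nanobody library was expressed on Saccharomyces cerevisiae BJ5465 by galactose induction for 36–48 hours. The library was stained for 1 hour at 4 °C with 10% biotinylated, detergent-solubilized Sf9 membrane reagent and enriched with streptavidin microbeads before FACS. Low and high (top ~1%) gates were set on anti-HA fluorescence for expression and streptavidin fluorescence for reagent binding, and each polyreactivity label reflects the gate of origin.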"}
{"sequence": "QGQLVESRGGLVQAGGRLRLSCAASGAIVSKNAMGWYRQAPGKERELVAAISRSAGSTYYADSVKGRFTISRVNAKNTVYLQLHSLKPEDTAVFYCAADWYYWQLWWGEGDYWGQGTQVTVSS", "polyreactivity (PSR sort gate)": "low polyreactivity"}
{"sequence": "QVQLVESGGGLVQAGGSLRLSCAASGRTFIPYAMGCYRPAPGKERELVAAIRSGASTNYADSVKGRFTISRDNAKITVYLQMNSLNPEDTAVYYCNADFLGGTWFDYWGQGTQVTVSS", "polyreactivity (PSR sort gate)": "high polyreactivity"}
{"sequence": "QVQLLETGGGLVQAGGSLRLSCAASGSIFSRNDMGWYRPAPGKERELVAAITWSGGSTYYADSVKGRFTISRDNAKNTVYLQMNSLKPEDTAVYYCATRYTRVYDCWGQGTLVTVSS", "polyreactivity (PSR sort gate)": "high polyreactivity"}
{"sequence": "QVQLVESGGGLVQAGGSLRLSCAASGRIFVHNAMGWYRQAPGKERELVAAIRSSGGRTYYADSVKGRFTISRDNAKKTVYLQMNSLKPEDTAVYYCAARFDTTRVGYWGQGTQVTVSS", "polyreactivity (PSR sort gate)": "high polyreactivity"}
{"sequence": "QVQLVESGGGLVQAGGSLRLSCAASGFTFRRYAMGWYRQAPGKERELVAAISRSGGRTYYADSVKGRFTISRDNAKNTVYLQMNSLKPEDTAVYYCAARYFKPGGAYDSWGQGTQVTVSS", "polyreactivity (PSR sort gate)": "high polyreactivity"}
{"sequence": "QVQLVESGGGLVQAGGSLRLSCAASGIIFWAYAMGWYRQAPGKERELVAVISRGGSTNYADSVKGRFTISRDNAKNTVYLQMNSLKPEDTAVYYCAARYGWGQGTQVTVSS", "polyreactivity (PSR sort gate)": "high polyreactivity"}
{"sequence": "QVQLVESGGGLVQAGGSLRLSCAASGSIFRSYAMGWYRQAPGKERELDAAISRRGSSTYYADSVKGRFTISRDIAKNTVYLQMISLKPEDSAVYYCNRVRYPRVDYWGQGTQVTVSS", "polyreactivity (PSR sort gate)": "high polyreactivity"}
{"sequence": "QVQLVESGGGLVQAGGSLRLSCAASGLTIYHYAMGWYRQAPGKERELVAAISWNGGSTYYADSVKGRFTISRDNAKNTVYLQMNSLKPEDTAVYYCAVVFNPHRYTGVLAGYDYWGQGTQVTVSS", "polyreactivity (PSR sort gate)": "high polyreactivity"}
{"sequence": "QVQLVESGGGLVQAGGSLRLSCAASGRTFGLYAMGWYRQAPGKERELVADINGSGTRTYYADSVKGRFTISRDNAKNTVYLQMNSLKPEDTAVYYCYGRYHWLYYWGQGTQVTVSS", "polyreactivity (PSR sort gate)": "high polyreactivity"}
{"sequence": "QVQLVESGGGLVQAGGSLRLSCAASGSIFVVNAMGWYRQAPGKERELVAAISDSGDRTYYADSVKGRFTISRDNAKNTVYLQMNSLKPEDTAVYYCAADSIQTTAIYDYWGQGTQVTVSS", "polyreactivity (PSR sort gate)": "low polyreactivity"}
{"sequence": "QVQLVESGGGLVQAGGSLRLSCAASGRTFYRNVMGWYRQAPGKERELVAAISWSGGRTYYADSVKGRFTISRDNAKNTVYLQMNSLKPEDTAVYYCARYDRGGRHYYYWGQGTQVTVSS", "polyreactivity (PSR sort gate)": "high polyreactivity"}
{"sequence": "QVQLLESWGGLVHAGGSVRLSCAASGSIFGYNAMGWYRESPGKEREWVAAISWDGGSTYYADSVKGRFTISRDNAKYNVFLQMNSLKPEDTAVYYCAAEGLRFVYEYWGQGTQVTVSS", "polyreactivity (PSR sort gate)": "low polyreactivity"}
{"sequence": "QVQLVESGGGLVQAGGSLRLICAASGSTFDYYAKGWYRQATGKERELVASITWGDGSTYYADSVKGRFTISRDNAKNTVYLQRNSLKPEDTAVYYCNDDDTQLESYAPGHGYDYWGQGTQVTVSS", "polyreactivity (PSR sort gate)": "low polyreactivity"}
{"sequence": "QVQLQESGGGLVQAGGSLCLSCAASGTIFFDRDMGWYRQAPGKEREFVAAINPGGSAYYADSVKGRLPLAAITHTVYLQRNSLKPEVTAVYYCAAKLFDVYGYYYWGQGTDVTVSS", "polyreactivity (PSR sort gate)": "low polyreactivity"}
{"sequence": "QVQLVESGGGLVQAGGSLRLSCAASGSTFPYYTMGWYRQAPGKEREMVAAITGSGGSTYYADSVKGRFTISRDNAKNTVYLQMNSLKPEDTAVYYCAKRRWDQYFKNRMYFWGQGTQVTVSS", "polyreactivity (PSR sort gate)": "high polyreactivity"}
{"sequence": "QVQLVESGGGLVQEGGSLRLSCAASGFTFRYYAMGWYRQAPGKERELVAAIRWNGGSTYYADSVKGRFTISRDNAKNTVYLQMNRLKPEDTAVYYCNAAYSYGRYEYVYWGQGTQVTVSS", "polyreactivity (PSR sort gate)": "high polyreactivity"}
{"sequence": "QVQLVESAAGLVQAGGSLRLSCAASGSILKLNAMGWYRQAPGKERELVAAISRGGRTYYADSVKGRFTISRDNAKNTVYLQMHSLKPEDTAVYYCAADACLLGPGDFNYWGQGTQVTVSS", "polyreactivity (PSR sort gate)": "low polyreactivity"}
{"sequence": "QVQLVESGGGLVQAGGRLRLSCAASGRTFIANVMGWYIQAPGKERELVAAITSGGGTSYADSVKGRFTISRDNAKNTVYLQMNSLKPEDTAVYYCNADGYLAERFVIRLDEYRDYDYWGQGTQVTVSS", "polyreactivity (PSR sort gate)": "low polyreactivity"}
{"sequence": "QVQLVESGGGLVQAGGSLRLSCAASGRIFNLNAMVRYRQAPGKERELVAAISKSGTRTYYADSVKGRFTISRDNAKNTVYLQMYSLKPEDTAVYYCGAEALYYDRLGWVYLRYDYWGQGTQVTVSS", "polyreactivity (PSR sort gate)": "high polyreactivity"}
{"sequence": "QVQLVESGGGLVQAGGSLRLSCAASGSTYDPNAMGRYRQAPGKERELVAAISWSGGSTYYADSVKGRFTISRDNAKNTVYLQMYSLKPEDTAVSYCNAQFYDSYSYTNDYWGQGTLVTVSS", "polyreactivity (PSR sort gate)": "low polyreactivity"}
{"sequence": "QVQLVESGGGLVQAGGSLRLSCAASGSIFTSNAMGWYRQAPGKERELVAAISYISGGTYYADSVKGRFTISRDNAKNTVYLQMNSLKPEDTAVYYCAAEQKWGSGQYDQGSYWYYYWGQGTQVTVSS", "polyreactivity (PSR sort gate)": "low polyreactivity"}
{"sequence": "QVQLVESGGGLVQAGGSLRLSCAASGRTFIYYAMGWYRPAPGKERELVAAITWTGGRTYYADSVKGRFTISRDNAKNTVYLQMNSLKPEDTAVYYWAASDRYGGRDYWGQGTQVTVSS", "polyreactivity (PSR sort gate)": "high polyreactivity"}
{"sequence": "QVQLVESGGGLVQAGGSLRLSCAASGSIFSFYAMGWYRQAPGKERELVAAIDVSGGSTYYADSVKGRFTISRDNAKNTVYLQMNSLKPEDTAVYYCAKDVRDQYDYWGQGTQVTVSS", "polyreactivity (PSR sort gate)": "low polyreactivity"}
{"sequence": "QVQLVESGGGLVQAGGSLRLSCAASGSTFTNYAMGWYRQAPGKERELLARITYNVGRTYYADSVKGRFTISRDNAKNTVYLQMNSLKPEDTAVYYCAAGVGWRYRVRWYYSLGDYWGQGTQVTVSS", "polyreactivity (PSR sort gate)": "high polyreactivity"}
{"sequence": "QVQLVESGGGLVQAGGSLSLSCAASGSILVPYTMGWYRQAPGKERELVASISYSGGSTYADSVKGRFTISRDNAKNTVYLQMNSLKPEDTAVYYCAASLPPWYPGDDFYYWGQGTQVTVSS", "polyreactivity (PSR sort gate)": "low polyreactivity"}
{"sequence": "QDQLVESGGGLVQARGRQRLSCAATGSTFYRNALGWYRQAPGKEREFVAAISFRGGGTYADSVKGRFTISRDNAKNTVYLQMNSLKPEDTAVYYFGADHLSYRRRYEYWGQGTQVTVSS", "polyreactivity (PSR sort gate)": "low polyreactivity"}
{"sequence": "QVHLVESGGGLVQAGGSLRLSCAASGSIFVQYAMGWYRQAPGKERELVAAITRDGDRTYYADSVKGRFTISRDNAKNTVYLQMNSLKPEDTAVYYCAARHSSIRSPQYDYWGQGTQVTVSS", "polyreactivity (PSR sort gate)": "high polyreactivity"}
{"sequence": "QVQLVESGGGLVQAGGSLRLSCAASGSTFFPYAMGWYRQAPGKERELVAAIRWSGGRTYYADSVKGRFTISRDNAKNTVYLQMNSLKPEDTAVYYCAAEKYLDYDYWGQGTQVTVSS", "polyreactivity (PSR sort gate)": "high polyreactivity"}
{"sequence": "QVQIVESGGGLVQAGGSLRISCAASGFIFAYNSMGWNRQAPGKERELVAAISRSGGSTRYADSVKGRFPISRDNAKNTVFLQMNSLKPEDTAVYYCAAEYLGSYGYYEYDFWGQGTQVTVSS", "polyreactivity (PSR sort gate)": "high polyreactivity"}
{"sequence": "QVQLVESGGGLVQAGGSLRLSCAASGRIFGVYAMGWYRQAPGKERELVAAITSSGGRTYYADSVKGRFTISRDNAKNTVYLQMNSLKPEDTAVYYCAALGLSRRGKFNYWGQGTQVTVSS", "polyreactivity (PSR sort gate)": "high polyreactivity"}
{"sequence": "QVQLVESGVGLVQAGGSLRLSCAASGIIFRSYAMGWYRQAPGKERELVAAITSSGGRTYYADSVKGRFTISRDNAKNTVYLQMNSLKPEDTAVYYCAAKTYQQQIVRPMYYWGQGTQVTVSS", "polyreactivity (PSR sort gate)": "high polyreactivity"}
{"sequence": "QVQLVESGGGLVQAGGSLRLSCAASGSILGVYTMGWYRQAPGKERELVARIRLSGGSTYYADSVKGRFTISRDNAKNTVYLQMNSLIPEDTAVYYCAARYSRARFTDPYYYWGQGTQVTVSS", "polyreactivity (PSR sort gate)": "high polyreactivity"}
{"sequence": "QDQLVESGGGLVQAGGSLRLSCAASGRTLYYYTMGWYRQAPGKERELVAAITWSGGSTYADSVKGRFTISRDNAKNTVYLQMNSLKPEDTAVYYCAAVRTSRFDYWGQGTQVTVSS", "polyreactivity (PSR sort gate)": "high polyreactivity"}
{"sequence": "QVQLVESGGGLVQAGGSLRLSCGATGSIFKTYAMGWYRQAPGKERELVAAISQRGGSTYYADSVKGRFTISRDNAKNTVYLQMNSLKPEDTAVYYCAARYAYQSYLYRFDYWGQGTQVTVSS", "polyreactivity (PSR sort gate)": "high polyreactivity"}
{"sequence": "QVQLVESGGGLVQAGGSLRLSCAASGRTFFGYAMGWYRQAPGKERELVAAITTSGGSTYYADSVKGRFTISRDNAKNTVYLQMNSLKPEDTAVYYCAARAYYGYYYWGQGTQVTVSS", "polyreactivity (PSR sort gate)": "low polyreactivity"}
{"sequence": "QVQLVESGGGLVQAGGSLRLSCAASGSIFTWYAMGWYRQAPGKERELVAAITRGGSTYADSVKGRFTISRDNAKNTVYLQMNSLKPEDSAVYYCNAVYGVYDFTYWGPGTQVTVSS", "polyreactivity (PSR sort gate)": "low polyreactivity"}
{"sequence": "QVQLVESGGGLVQAGGSLRLSCAASVRTMGPYTMGWYRPAPGKERELVAVISSRTGLTYYADSVKGRFTISRDNAKITFYLHMNSLKPEDTAVYYCNAGGRYHAPSGDYWGQGTQVTVSS", "polyreactivity (PSR sort gate)": "low polyreactivity"}
{"sequence": "QVQLVESGGGLVQAGGSLRLSCAPSGLTFVGYAMGWYRQAPGKERELVAAISGVGTTNYADSVKGRFTISRDNAKNTVYLQMNSLKPEDTAVYYCATAPYPVPYRLYDYWGQGTQVTVSS", "polyreactivity (PSR sort gate)": "low polyreactivity"}
{"sequence": "QVQLVESGGGLVQAGGSLRLSCAASGLTFSAYAMGWYRQAPGKERELVAAITSSGGSTYADSVKGRFTISRDNAKNTVYLQMNSLKPEDTAVYYCNADLGDYGWYSSYDYWGQGTQVTVSS", "polyreactivity (PSR sort gate)": "low polyreactivity"}
{"sequence": "QVQLVESGGGLVQAGGSLRLICAASGRIIPSYSMGWYRQAPAKEREFVAVIRSSVDGTYYADSVKGRFTISRDYAKNTVYLHMNSLNPDDTSVYYFSADSYPFFIRNLYPVLEGEYGHWGQGTQVNVSS", "polyreactivity (PSR sort gate)": "low polyreactivity"}
{"sequence": "QVQLVESGGGIVQAGGILRLTGAASVITNTSYAMGWYRQAPGKERELVAAISSSGVRTYYADSVKGRFTISRDNAKNTVYLQLNSLKPEDTAVYYCATRRRVLFGYDYWGQGTQVTVSS", "polyreactivity (PSR sort gate)": "high polyreactivity"}
